Measurements reported in patent publication US20240279618A1, “RECEPTOR TYROSINE KINASE AGONIST, COMPOSITION FOR CELL CULTURE MEDIUM, AND […] MAINTENANCE COMPOSITION” (SEKISUI CHEMICAL CO., LTD., priority 2021, published 2024).

B1: #1-L4-#1: dimer of VHH #1 with linker L4 (GSEGKSSGSGSESKST), SEQ ID NO: 23 (protein)
VHH: QLQLVESGGGSVQAGGSLRLSCAASRSLSRFNVWTWYRQAPVKQRELVASITKSGDTNYAESVKGRFIISRDDDKNTVYLQMNNLKSEDTGIYYCAGSYYSGSYLYPSPGGFSVWGQGTQVTVSSGSEGKSSGSGSESKSTQLQLVESGGGSVQAGGSLRLSCAASRSLSRFNVWTWYRQAPVKQRELVASITKSGDTNYAESVKGRFIISRDDDKNTVYLQMNNLKSEDTGIYYCAGSYYSGSYLYPSPGGFSVWGQGTQVTVSS
modifications: #1-L4-#1

How the values were obtained:
[1] = test system: human bone marrow-derived MSC; experiment: MSC culture: evaluation of cell growth and morphology; format: cell-based; design: key to P3 Growth rate / P4 Growth rate / P5 Growth rate: cells per well at passage divided by cells at seeding; conditions: for P2 Count (3-well) / P2 Growth rate / P3 Count (3-well) / P3 Growth rate / P4 Count (3-well) / P4 Growth rate / P5 Count (3-well) / P5 Growth rate / cumulative number of cells (average value), P1 / cumulative number of cells (average value), P2 / cumulative number of cells (average value), P3 / cumulative number of cells (average value), P4 / cumulative number of cells (average value), P5 / P1 Count (2-well): MSC, 20 ng/mL; for cumulative number of cells (average value), P1: culture day 5; for cumulative number of cells (average value), P2: culture day 10; for cumulative number of cells (average value), P3: culture day 15; for cumulative number of cells (average value), P4: culture day 20; for cumulative number of cells (average value), P5: culture day 25; for growth performance of MSC (cumulative number of cells): regardless of the FBS concentration (10% or 20%); for morphology of MSC: 4 passages, Day 1
Protocol: 10 mL of a used portion of D-MEM medium (Low Glucose, Glutamine) (Fujifilm Wako Pure Chemical Corporation, C/N: 041-29775) was added to a 15 mL PP tube, and warmed in a thermostatic water tank (set at 37° C.). A human bone marrow-derived MSC (Stemcell Technologies, C/N: 70022) stock tube preserved in a liquid nitrogen gas phase was taken out from a liquid nitrogen container and thawed in a thermostatic water tank (set at 37° C.). Thereafter, the cells were rapidly moved with a pipette into the tube (including 10 mL of the medium) that had been heated to 37° C. in a clean bench, and mixed by pipetting. The tube was centrifuged (300× g, 5 minutes) and the supernatant was removed with an aspirator.
An appropriate amount of D-MEM that had been warmed to room temperature was added to a cell pellet and mixed, and then the number of cells was evaluated with a cell counter. An appropriate amount of the cell suspension was taken into a 15 mL PP tube and centrifuged (300× g, 5 minutes). The supernatant was removed, an appropriate amount of D-MEM (containing 10% or 20% of FBS (Thermo Fisher Scientific Inc., 16140071); the stock was preserved under refrigeration and used within 2 weeks) was added to a cell pellet to adjust a cell suspension (1).
The number of cells was evaluated again with a cell counter and the cells were appropriately diluted with each of the media. Next, a stock of basic FGF or VHH was added to the cell suspension (1), so that each of the final concentrations was 1 ng/ml or ng/mL. Seeding was performed onto a CellBIND 6-well plate (Coming, C/N: 3335) at a density of 3-5×10^4/well, and after 2 to 4 days, medium exchange was performed using D-MEM (containing 10% FBS or 20% FBS).
The cells were observed under a microscope, and basically, passage was carried out after 5 days from seeding. In advance, the used D-MEM (0% FBS, 10% FBS, or 20% FBS) was warmed in advance in a thermostatic water tank (set at 37° C.). After washing the cells with D-PBS, 500 μL of TrypLE Express was added thereto and the cells were left to stand in a CO2 incubator. After 5 to 10 minutes, the culture container was removed from the CO2 incubator, and a change in cell morphology was confirmed under a microscope. Thereafter, 1 mL of D-MEM was added to each well, and the cells were released by pipetting, suspended, and then recovered in a 15 mL PP tube.
The tube was centrifuged (300× g, 5 minutes) and the supernatant was removed with an aspirator. An appropriate amount of a D-MEM medium (containing 10% FBS or 20% FBS) was added to the cell pellet, and mixed by pipetting. A part of the cell suspension was collected and the number of cells was evaluated with a cell counter. After counting the […] in each well, the cell suspensions in the same group were collected in one tube and mixed together. The average value of individual wells was used to calculate the number of cells at the time of passage.
The cell suspension was appropriately diluted with D-MEM (10% FBS or 20% FBS). The cells were seeded on a new CellBIND 6-well plate at […] cells/well. Furthermore, one well was adjusted to 2 mL/well. After 2 to 4 days, medium exchange was performed with a medium at room temperature.
The average value of the counts of number of cells per well acquired during the passage was used to create a cell growth straight line. In addition, a value obtained by dividing the number of cells per well at the time of passage by the number of cells at the time of seeding was defined as a growth rate during that period, and the rate was used at the time of calculating a cumulative number of cells. In a case in which the number of cells per well at the time of initial seeding is defined as P(0) and the time of the N^th passage is defined as P(N), the cumulative number of cells at each passage is determined by the following calculation equation. […]

[2] = test system: human bone marrow-derived MSC; experiment: MSC: evaluation of fat differentiation induction (Oil Red O); format: cell-based; conditions: MSC after 3-passage subculture with 20 ng/ml additive, 14 days induction
Protocol: A third passage was performed in a CellBIND(R) 24-well transparent multi-well plate (Corning, C/N: 3337), and then at a time of reaching 80% to 90% confluence, medium exchange was performed in MesenCult Stem Cell Adipogenic Differentiation Medium (PromoCell, C/N: C-28016) which is a medium for differentiation induction. Furthermore, for the cells as a negative control, D-MEM (10% FBS or 20% FBS) was used for the medium exchange. The medium exchange was carried out every 2 to 4 days.
After 14 days from seeding, a 4% paraformaldehyde/phosphate buffer solution was added thereto at 500 μL/well, and the cells were left to stand for 2 hours or longer. After the immobilization, purified water was added thereto at 500 μL/well. An Oil Red stock liquid (Cosmo Bio Co., Ltd., C/N: AK09F) and purified water were mixed at a ratio of 6:4, and the mixture was left to stand at room temperature for 10 to 15 minutes. Thereafter, the filtrate was filtered through a membrane filter having a pore size of 0.5 to 1.0 μm, and the filtrate was used as an Oil Red O liquid. 500 μL of the Oil Red O liquid was added to each well and the mixture was left to stand at room temperature for 15 minutes. […] 100 μL of the eluate was transferred to a 96-well plate and the absorbance at 520 nm was measured. […]

[3] = FBS 10%, cells at passage divided by cells at seeding
[4] = FBS 10%, number of cells (average value) at passage P1

Row | Molecule | P2 Count (3-well) ([1]; FBS 10%) | P2 Growth rate [1, 3] | P3 Count (3-well) ([1]; FBS 10%) | P3 Growth rate ([1]; FBS 10%) | P4 Count (3-well) ([1]; FBS 10%) | P4 Growth rate ([1]; FBS 10%) | P5 Count (3-well) ([1]; FBS 10%) | P5 Growth rate ([1]; FBS 10%) | cumulative number of cells (average value), P1 ([1]; FBS 10%) | cumulative number of cells (average value), P2 ([1]; FBS 10%) | cumulative number of cells (average value), P3 ([1]; FBS 10%) | cumulative number of cells (average value), P4 ([1]; FBS 10%) | cumulative number of cells (average value), P5 ([1]; FBS 10%) | P1 Count (2-well) [1, 4] | P1 Count (2-well) ([1]; FBS 20%, P1) | P2 Count (3-well) ([1]; FBS 20%) | P2 Growth rate ([1]; FBS 20%) | P3 Count (3-well) ([1]; FBS 20%) | P3 Growth rate ([1]; FBS 20%) | P4 Count (3-well) ([1]; FBS 20%) | also measured
1 | FGF2: fibroblast growth factor (basic), human, recombinant (154aa), positive control; SEQ ID NO: 58 [reference compound] | 3.6E+05 | 7.2 | 3.5E+05 | 7.0 | 3.0E+05 | 6.0 | 2.0E+05 | 3.9 | 6.8E+05 | 4.9E+06 | 3.4E+07 | 2.1E+08 | 8.1E+08 | 6.8E+05 | 1.2E+06 | 5.3E+05 | 10.7 | 6.6E+05 | 13.2 | 5.5E+05 | P4 Growth rate ([1]; FBS 20%): 10.9; P5 Count (3-well) ([1]; FBS 20%): 3.6E+05; P5 Growth rate ([1]; FBS 20%): 7.2; cumulative number of cells (average value), P1 ([1]; FBS 20%): 1.2E+06; cumulative number of cells (average value), P2 ([1]; FBS 20%): 1.3E+07; cumulative number of cells (average value), P3 ([1]; FBS 20%): 1.7E+08; cumulative number of cells (average value), P4 ([1]; FBS 20%): 1.8E+09; cumulative number of cells (average value), P5 ([1]; FBS 20%): 1.3E+10; growth performance of MSC (cumulative number of cells) [1]: almost the same growth performance; differentiation into the fat cell line (Oil Red O) [2]: Differentiation was similarly recognized
2 | B1 | 4.3E+05 | 8.5 | 3.7E+05 | 7.5 | 2.9E+05 | 5.8 | 2.2E+05 | 4.3 | 6.3E+05 | 5.4E+06 | 4.0E+07 | 2.3E+08 | 1.0E+09 | 6.3E+05 | 1.3E+06 | 8.4E+05 | 16.7 | 6.9E+05 | 13.7 | 4.9E+05 | morphology of MSC ([1]; 10% FBS, low concentration (1 ng/mL)): flattened morphology; morphology of MSC ([1]; 20% FBS): same morphology was exhibited regardless of the addition concentration; P4 Growth rate ([1]; FBS 20%): 9.7; P5 Count (3-well) ([1]; FBS 20%): 4.3E+05; P5 Growth rate ([1]; FBS 20%): 8.7; cumulative number of cells (average value), P1 ([1]; FBS 20%): 1.3E+06; cumulative number of cells (average value), P2 ([1]; FBS 20%): 2.1E+07; cumulative number of cells (average value), P3 ([1]; FBS 20%): 2.9E+08; cumulative number of cells (average value), P4 ([1]; FBS 20%): 2.8E+09; cumulative number of cells (average value), P5 ([1]; FBS 20%): 2.4E+10; growth performance of MSC (cumulative number of cells) [1]: almost the same growth performance; differentiation into the fat cell line (Oil Red O) [2]: Differentiation was similarly recognized
